Test results reported in patent US10260068B2, “Prophylactic agent and therapeutic agent for fibrodysplasia ossificans progressiva” (Sumitomo Dainippon Pharma Co., Ltd., priority 2014, dated 2019).

How the values were obtained:
[1] = tested on: FOP patient derived cells; assay: Evaluation of binding inhibitors: chondrocyte differentiation of FOP patient derived cells in copresence of human activin A; type: cell-based; settings: copresence of 30 ng/mL human activin A, 6 days; vs activin-treated group
Protocol: Patient iPS cell line-derived mesenchymal stem cell-like cells were prepared by the same method as Example 1. The mesenchymal stem cell-like cells were cultured for 6 days by the same method as Example 3, for differentiation to chondrocytes. The effect of each factor on differentiation to chondrocytes was examined, with neutralizing antibody for human activin A (product of R&D Systems, Inc., trade name: Human/Mouse/Rat Activin A βA subunit Antibody), follistatin (product of R&D Systems, Inc., trade name: Recombinant Human Follistatin 315 as 30-344), follistatin-like 3 (product of R&D Systems, Inc., trade name: Recombinant Human Follistatin-related Gene Protein/FLRG), ACVR2A-Fc chimeric protein (product of R&D Systems, Inc., trade name: Recombinant Human Activin RIIA Fc Chimera (CHO)), or ACVR2B-Fc chimeric protein (product of R&D Systems, Inc., trade name: Recombinant Human Activin RIIB Fc Chimera), in the copresence of 30 ng/mL of human activin A. The ACVR2A-Fc chimeric protein is a fusion protein in which a polypeptide fragment having the amino acid sequence of positions 20 to 134 of the amino acid sequence listed as SEQ ID NO: 12, and the Fc region of the human-derived antibody, are bonded via a linker sequence (Ile-Glu-Gly-Arg-Met-Asp). The ACVR2B-Fc chimeric protein is a fusion protein in which a polypeptide fragment having the amino acid sequence of positions 19 to 134 of the amino acid sequence listed as SEQ ID NO: 14, and the Fc region of the human-derived antibody, are bonded via a linker sequence (Ile-Glu-Gly-Arg-Met-Asp). The extent of differentiation to chondrocytes was evaluated by Alcian blue staining and sulfated glycosaminoglycan assay, similar to Example 3. In FIG. 6(B), the bar graph indicates the mean values for each treated group, and the error bars represent S.D.

[2] = tested on: FOP patient derived cells; assay: Differentiation to chondrocytes (Alcian blue, sulfated glycosaminoglycan assay) of FOP patient derived cells; type: cell-based, human
Protocol: (§1) Mesenchymal stem cell-like cells from a patient iPS cell line and a gene-corrected iPS cell clone were each prepared by the same method as Example 1. The mesenchymal stem cell-like cells were cultured for 6 days under the medium conditions used in the method of Umeda et al. (Sci. Rep., 2012, 2, 455), for differentiation to chondrocytes. During differentiation, 100 ng/mL of human activin A, 100 ng/mL of human BMP-7 or 1 ng/mL of human TGF-β3 (product of R&D Systems, Inc., trade name: Recombinant Human TGF-beta 3) was added and the effect of each factor on differentiation to chondrocytes was examined. The extent of differentiation to chondrocytes was measured with Alcian blue dye and a sulfated glycosaminoglycan assay kit (product of Biocolor, Ltd., trade name: Blyscan Glycosaminoglycan Assay Kit). In FIG. 4, the bar graph indicates the mean values for each treated group, and the error bars represent S.D.

[3] = tested on: gene-corrected clone derived cells; assay: Differentiation to chondrocytes (sulfated glycosaminoglycan assay) of gene-corrected clone derived cells; type: cell-based, human; settings: 100 ng/mL BMP-7 or 1 ng/mL TGF-β3, 6 days, vs untreated group
Protocol: as §1

Molecule | differentiation of FOP patient derived cells to chondrocytes (Alcian blue staining, sulfated glycosaminoglycan assay) [1] | difference in cartilage induction between FOP patient derived cells and gene-corrected clone derived cells ([2]; 1 ng/mL TGF-β3, 6 days) | cartilage induction effect compared to the effect exhibited by activin A on FOP patient derived cells ([2]; 100 ng/mL BMP-7 or 1 ng/mL TGF-β3, 6 days) | cartilage induction (sulfated glycosaminoglycan assay) ([2]; FOP patient derived cells, 100 ng/mL activin A, 100 ng/mL BMP-7 or 1 ng/mL TGF-β3, 6 days, vs untreated group) | cartilage induction (sulfated glycosaminoglycan assay) [3]
follistatin: Recombinant Human Follistatin 315 (R&D Systems) (protein) GNCWLRQAKNGRCQVLYKTELSKEECCSTGRLSTSWTEEDVNDNTLFKWMIFNGGAPNCIPCKETCENVDCGPGKKCRMNKKNKPRCVCAPDCSNITWKGPVCGLDGKTYRNECALLKARCKEQPELEVQYQGRCKKTCRDVFCPGSSTCVVDQTNNAYCVTCNRICPEPASSEQYLCGNDGVTYSSACHLRKATCLLGRSIGLAYEGKCIKAKSCEDIQCTGGKKCLWDFKVGRGRCSLCDELCPDSKSDEPVCASDNATYASECAMKEAACSSGVLLEVKHSGSCNSISEDTEEEEEDEDQDYSFPISSILEW | inhibited |  |  |  | 
TGF-β3: Recombinant Human TGF-beta 3 (R&D Systems) (protein, UniProt P10600 301-412, looked up) Transforming growth factor …: ALDTNYCFRNLEENCCVRPLYIDFRQDLGWKWVHEPKGYYANFCSGPCPYLRSADTTHSTVLGLYNTLNPEASASPCCVPQDLEPLTILYYVGRTPKVEQLSNMVVKSCKCS |  | no significant difference | weaker | significantly enhanced | significantly enhanced
ACVR2B-Fc chimeric protein: Fusion of positions 19 to 134 of SEQ ID NO: 14 with human antibody Fc region via linker Ile-Glu-Gly-Arg-Met-Asp (protein, left off: a dimerising Fc or GST) SGRGEAETRECIYYNANWELERTNQSGLERCEGEQDKRLHCYASWRNSSGTIELVKKGCWLDDFNCYDRQECVATEENPQVYFCCCEGNFCNERFTHLPEAGGPEVTYEPPPTAPTIEGRMD | inhibited |  |  |  | 
follistatin-like 3: Recombinant Human Follistatin-related Gene Protein/FLRG (R&D Systems) (protein, listed as Homo sapiens) MRPGAPGPLWPLPWGALAWAVGFVSSMGSGNPAPGGVCWLQQGQEATCSLVLQTDVTRAECCASGNIDTAWSNLTHPGNKINLLGFLGLVHCLPCKDSCDGVECGPGKACRMLGGRPRCECAPDCSGLPARLQVCGSDGATYRDECELRAARCRGHPDLSVMYRGRCRKSCEHVVCPRPQSCVVDQTGSAHCVVCRAAPCPVPSSPGQELCGNNNVTYISSCHMRQATCFLGRSIGVRHAGSCAGTPEEPPGGESAEEEENFV | inhibited |  |  |  | 
